The values below are quoted from earlier work in paper PMC7599994.

The data set concerns the target HIV-1 capsid CA CTD (Human immunodeficiency virus 1) (UniProt O93182).

pKd: −log10 of the molar value.

“HIV-1 capsid CA CTD (from UniProt O93182)”: the pKd is 5.00.

A word on the pKd: it is the Kd on a negative log10 scale, so that one unit is a factor of ten.
